From patent US20200317791A1 (Janssen / Centocor, published 2020)
Read-outs that look alike come from different tables or passages of the source.

Assays:
[1] = target: CW6W55.ECO.PP.002; assay: SPR Biacore 8K, captured mAb; Kinetic fit not valid
[2] = target: CW6W54.001; assay: as above
[3] = target: CW6W56.ECO.PP.001; assay: SPR Biacore 8K, captured mAb; Acceptable fit
Text: (§1) To further characterize the ability of the antibodies to differentiate between class I MHC molecules.

[4] = target: T1, A24_A*24:02 (human, UniProt A*24:02); assay: LABScreen beads
T1 construct: on LABScreen bead; also called HLA-A*24:02 (LABScreen class I bead)
T1 heavy chain: not shown

[5] = target: T2, CW6W3.ECO.PP.002/.003 (rhHLA-Cw6/ARF) (human); assay: SPR ProteOn XPR36, captured mAb; valid kinetic fit, range of two replicates (upper end)
T2 construct: also called rhHLA-Cw6/ARFN; rHLA-Cw6/ARFN
Experimental: (§2) Anti-HLA-Cw6 mAbs were captured at ligand densities ranging from 100 to 200 response units. […] All analyses were conducted in PBST at 100 μL/min flow rate with association and dissociation times of 180 and 900 seconds, respectively. […] Analyte raw data was double referenced by subtraction of the blank surface response at “interspots” (to correct for refractive index changes and any non-specific interactions with the chip surface) and of the buffer blank response (to correct for any baseline drift resulting from mAb dissociation over time). Referenced data were globally fit to a 1:1 simple Langmuir binding model. Kinetic parameters were calculated for each mAb/antigen combination or interaction using Bio-Rad ProteOn Manager software (version 3.1.0.6) with parameter (kon, koff, Rmax) scope and type set to “Grouped” and “Fitted,” respectively.

[6] = target: T1, A24_A*24:02; assay: LABScreen beads
[7] = target: T3, CW6W32 (rhHLA-Cw6/TRAT) (human); assay: SPR Biacore 8K, captured mAb; Kinetic fit not valid
T3 construct: also called CW6W32.009; rHLA-Cw6/TRAT

[8] = target: CW6W53.001; assay: SPR Biacore 8K, captured mAb; Acceptable fit
Text: as §1

[9] = target: CW6W35.001; assay: SPR Biacore 8K, captured mAb; Acceptable fit
Text: as §1

[10] = target: CW6W51.001; assay: SPR Biacore 8K, captured mAb; Acceptable fit
Text: as §1

[11] = target: T4, CW6W36 (rhHLA-Cw6/ADAMTSL5) (human); assay: SPR Biacore 8K, captured mAb; Acceptable fit
T4 construct: also called CW6W36.002; rHLA-Cw6/ADAMTSL5
Text: as §1

[12] = target: CW6W54.001; assay: SPR Biacore 8K, captured mAb; Acceptable fit
Text: as §1

[13] = target: T2, CW6W3.ECO.PP.002/.003 (rhHLA-Cw6/ARF); assay: SPR ProteOn XPR36, captured mAb; valid kinetic fit, range of two replicates
Experimental: as §2

[14] = target: T5, HLA-Cw6/TRAT on K562-rhHLA-Cw6 cells loaded with TRAT peptide (human, UniProt P10321 25-366); assay: cell-based or functional assay
T5 MHC heavy: […]
T5 peptide: TRATKMQVI

[15] = target: T1, A24_A*24:02; assay: LABScreen beads
[16] = target: T1, A24_A*24:02; assay: LABScreen beads

B1: CW6B229 (antibody, V domains shown)
VH: QVQLQESGPGLVKPSETLSLTCTVSGNSIRSYYWSWIRQPAGKGLEWIGRIYISGNTNYNPSLKSRVTMSIDTSKNQFSLKLSSVTAADTAVFYCARLSGIDAFDIWGQGTMVTVSS
VL: DIQMTQSPSSLSASVGDRVTITCQASQDISNYLNWYQQKPGKAPKLLIYDASNLETGVPSRFSGSGSGTDFTFTISSLQPEDFATYYCQQYDNLPITFGQGTRLEIK
notes: also called CW6B229.001; CW6M229 (DNA ID)
Kd [1]: 7.1 nM | Kd [2]: 0.673 nM | koff [2]: 0.000465 s⁻¹ | kon [2]: 691000 M⁻¹ s⁻¹ | Kd [3]: 1.23 nM | koff [3]: 0.00127 s⁻¹ | kon [3]: 1.03e+06 M⁻¹ s⁻¹ | binding result [4]: no binding (tested: 10 µg/ml)

B2: CW6B175 (antibody, V domains shown)
VH: EVQLVESGGGLVQPGGSLRLSCAASGFTFTNYWMTWVRQAPGKGLEWVANIKQSGSEKYYVDSVKGRFTISRDNAKNSLYLQMNSLRAEDTAVYYCARTLYEWELEPFDYWGQGTLVTVSS
VL: SYVLTQPPSVSVAPGQTARITCGGNRIGSKSVHWYQQKPGQAPVLVVFDDSDRPSGIPERFSGSNSGITATLTISRVEAGDEADYYCQVWDSSNDHVVFGGGTKLTVL
notes: also called CW6B175.001; CW6M175 (DNA ID)
Kd [5]: 0.0346 nM | koff [5]: 0.000363 s⁻¹ | kon [5]: 1.1e+07 M⁻¹ s⁻¹ | binding result [6]: no binding (tested: 10 µg/ml) | Kd [7]: 0.663 nM | koff [7]: 0.284 s⁻¹ | kon [7]: 4.28e+08 M⁻¹ s⁻¹ | Kd [8]: 0.327 nM | koff [8]: 0.00056 s⁻¹ | kon [8]: 1.72e+06 M⁻¹ s⁻¹ | Kd [9]: 0.12 nM | koff [9]: 0.000126 s⁻¹ | kon [9]: 1.05e+06 M⁻¹ s⁻¹ | Kd [10]: 0.157 nM | koff [10]: 0.000285 s⁻¹ | kon [10]: 1.82e+06 M⁻¹ s⁻¹ | Kd [11]: 1.87 nM | koff [11]: 0.0163 s⁻¹ | kon [11]: 8.73e+06 M⁻¹ s⁻¹ | Kd [12]: 0.128 nM | koff [12]: 0.000842 s⁻¹ | kon [12]: 6.6e+06 M⁻¹ s⁻¹ | Kd [13]: 0.0285 nM | koff [13]: 0.000314 s⁻¹ | kon [13]: 1.05e+07 M⁻¹ s⁻¹

B3: CW6B237 (antibody, V domains shown)
VH: QVTLKESGPVLVKPTETLTLTCTVSGFSLSNARMGVSWIRQPPGKALEWLAHIFSHDEKFYSTFLKSRLTISKDTSKSQVVLMMTNMDPVDTATYYCARIILSSSGHDAFDIWGQGTMVTVSS
VL: AIQMTQSPSSLSASVGDRVTITCRASQDIRHNLGWYQQKPGKAPNLLIYAASSLQSGVPSRFSGSGSGTDFILTISSLQPEDFATFFCLQDYIYPLTFGGGTKVEIK
notes: also called CW6B237.001; CW6M237 (DNA ID)
IC50 (read off the curve) [14]: ~0.3 µg/mL | binding result [15]: no binding (tested: 10 µg/ml)

B4: CW6B238 (antibody, V domains shown)
VH: QVTLKESGPVLVKPTETLTLTCTVSGFSLNNARMGVSWIRQPPGKALEWLAHMFSSDEKFYRTSLKSRLTISKDTSKSQVVLTMTNMDPVDTATYYCARISLYSSGHDTFDLWGQGTMVTVSS
VL: AIQMTQSPSSLSASVGDRVTITCRASQDIRNTLGWYQQKPGKAPNLLIYAASSLQSGVPSRFSGSGSGTDFTLTISSLQPEDFATYYCLQDYDYPLTFGGGTKVEIK
notes: also called CW6B238.001; CW6M238 (DNA ID)
binding result [16]: no binding (tested: 10 µg/ml)
